Data: patent publication US20210373004A1 (BIOASTER, published 2021)

Legend:
[1] = molecular target: T1, Flag-EmGFP-ColE2-6His (Escherichia coli); test: EIA 8 plex n° 2: colicin coated at 100 nM, Im-RLuc8 alone at 100 nM, luciferase signal (FIG. 4, light grey bars)
T1 construct: Coated on the plate or sprayed on the membrane; also called Colicin E2

[2] = molecular target: T1, Flag-EmGFP-ColE2-6His; test: EIA 8 plex n° 1: colicin coated at 100 nM, Im-RLuc8 alone at 100 nM, luciferase signal (FIG. 3, light grey bars)
[3] = molecular target: Flag-mCherry-ColAP41-Cys-6His (Pseudomonas aeruginosa AP41); test: EIA 8 plex n° 1: colicin coated at 100 nM, Im-RLuc8 at 100 nM, luminescence; light bar alone, dark bar with the 7 other unfused Im proteins
[4] = molecular target: Flag-mCherry-ColSyr-Cys-6His (Pseudomonas syringae B728A); test: as above
[5] = molecular target: Flag-mCherry-ColKhan-Cys-6His (Photorhabdus khanii); test: as above
[6] = molecular target: T1, Flag-EmGFP-ColE2-6His; test: EIA 4 plex: colicin coated at 100 nM, Im-RLuc8 alone at 100 nM, luciferase signal (FIG. 1, light grey bars)
[7] = molecular target: T2, Flag-EmGFP-ColE7-6His (Escherichia coli); test: kinetics, literature value (Li W. et al., 2004) printed above the bar pair; unit from the legend paragraph 10
T2 construct: also called Colicin E7

[8] = molecular target: T1, Flag-EmGFP-ColE2-6His; test: as above
[9] = molecular target: T3, Flag-mCherry-ColE8-6His (Escherichia coli); test: as above
T3 construct: also called Colicin E8

[10] = molecular target: T4, Flag-mCherry-ColErw-Cys-6His (Pectobacterium carotovorum); test: EIA 8 plex n° 2: colicin coated at 100 nM, Im-RLuc8 at 100 nM, luminescence; light bar alone, dark bar with the 7 other unfused Im proteins
[11] = molecular target: Flag-mCherry-ColLeaf-Cys-6His (Pseudomonas sp Leaf83); test: as above
[12] = molecular target: T2, Flag-EmGFP-ColE7-6His; test: EIA 8 plex n° 1: colicin coated at 100 nM, Im-RLuc8 alone at 100 nM, luciferase signal (FIG. 3, light grey bars)
[13] = molecular target: T4, Flag-mCherry-ColErw-Cys-6His; test: EIA 8 plex n° 1: colicin coated at 100 nM, Im-RLuc8 at 100 nM, luminescence; light bar alone, dark bar with the 7 other unfused Im proteins
[14] = molecular target: T2, Flag-EmGFP-ColE7-6His; test: EIA 4 plex: colicin coated at 100 nM, Im-RLuc8 alone at 100 nM, luciferase signal (FIG. 1, light grey bars)
[15] = molecular target: T3, Flag-mCherry-ColE8-6His; test: EIA: colicin coated at 100 nM, Im-RLuc8 at 100 nM, luminescence; light bar alone, dark bar with the 3 other unfused Im proteins
[16] = molecular target: T5, Flag-mCherry-ColE9-6His (Escherichia coli); test: kinetics, literature value (Li W. et al., 2004) printed above the bar pair; unit from the legend paragraph 10
T5 construct: also called Colicin E9

B1: Myc-RLuc8-Im2-6His (other)
chain: MGGEQKLISEEDLGGSASKVYDPEQRKRMITGPQWWARCKQMNVLDSFINYYDSEKHAENAVIFLHGNATSSYLWRHVVPHIEPVARCIIPDLIGMGKSGKSGNGSYRLLDHYKYLTAWFELLNLPKKIIFVGHDWGAALAFHYAYEHQDRIKAIVHMESVVDVIESWDEWPDIEEDIALIKSEEGEKMVLENNFFVETVLPSKIMRKLEPEEFAAYLEPFKEKGEVRRPTLSWPREIPLVKGGKPDVVQIVRNYNAYLRASDDLPKLFIESDPGFFSNAIVEGAKKFPNTEFVKVKGLHFLQEDAPDEMGKYIKSFVERVLKNEQKLELKHSISDYTEAEFLEFVKKICRAEGATEEDDNKLVREFERLTEHPDGSDLIYYPRDDREDSPEGIVKEIKEWRAANGKSGFKQGLEGGGSHHHHHH
notes: Immunity protein fused to the luciferase RLuc8 as reporter; added in solution; also called Im2-RLuc8; Im2-Rluc8
[1]
  RLU: > 2.4e+06 RLU
[2]
  RLU: > 2e+06 RLU
[3]
  binding result: no binding (tested: 100 nM)
[4]
  binding result: no binding (tested: 100 nM)
[5]
  binding result: no binding (tested: 100 nM)
[6]
  RLU: > 400000 RLU
[7]
  Kd: 0.36 nM
[8]
  Kd: 3.9e-06 nM
[9]
  Kd: 18 nM
[10]
  binding result: no binding (tested: 100 nM)
[11]
  binding result: no binding (tested: 100 nM)

B2: Myc-RLuc8-Im7-6His (other)
chain: MGGEQKLISEEDLGGSASKVYDPEQRKRMITGPQWWARCKQMNVLDSFINYYDSEKHAENAVIFLHGNATSSYLWRHVVPHIEPVARCIIPDLIGMGKSGKSGNGSYRLLDHYKYLTAWFELLNLPKKIIFVGHDWGAALAFHYAYEHQDRIKAIVHMESVVDVIESWDEWPDIEEDIALIKSEEGEKMVLENNFFVETVLPSKIMRKLEPEEFAAYLEPFKEKGEVRRPTLSWPREIPLVKGGKPDVVQIVRNYNAYLRASDDLPKLFIESDPGFFSNAIVEGAKKFPNTEFVKVKGLHFLQEDAPDEMGKYIKSFVERVLKNEQKLELKNSISDYTEAEFVQLLKEIEKENVAATDDVLDVLLEHFVKITEHPDGTDLIYYPSDNRDDSPEGIVKEIKEWRAANGKPGFKQGLEGGGSHHHHHH
notes: Immunity protein fused to the luciferase RLuc8 as reporter; added in solution; also called Im7-RLuc8; Im7-Rluc8
[12]
  RLU: > 2e+06 RLU
[13]
  binding result: no binding (tested: 100 nM)
[3]
  binding result: no binding (tested: 100 nM)
[4]
  binding result: no binding (tested: 100 nM)
[5]
  binding result: no binding (tested: 100 nM)
[14]
  RLU: > 400000 RLU
[15]
  binding result: binds
[8]
  Kd: 14 nM
[16]
  Kd: ~100000 nM
